A word on the Kd: it is a measure of binding affinity in units of concentration.

Assay [1] addresses T1, gD epitope-tagged rat mesothelin expressed on cells (rat, UniProt Q9ERA7 298-582).
T1 sequence: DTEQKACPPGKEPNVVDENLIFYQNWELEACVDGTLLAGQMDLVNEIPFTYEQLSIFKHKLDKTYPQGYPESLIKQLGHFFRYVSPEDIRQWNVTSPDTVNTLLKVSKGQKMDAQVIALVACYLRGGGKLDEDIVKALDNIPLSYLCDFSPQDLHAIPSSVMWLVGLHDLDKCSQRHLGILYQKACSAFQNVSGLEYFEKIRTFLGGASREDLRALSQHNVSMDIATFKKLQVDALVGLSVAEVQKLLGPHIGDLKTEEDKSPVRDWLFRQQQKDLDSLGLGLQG
As to the kind of experiment: Scatchard analysis on BJAB cells stably expressing gD-tagged rat mesothelin.

The target of assay [2] is T2, gD epitope-tagged cynomolgus monkey mesothelin expressed on cells (construct #383) (cynomolgus monkey).
T2 construct: also called cyno mesothelin
T2 chain: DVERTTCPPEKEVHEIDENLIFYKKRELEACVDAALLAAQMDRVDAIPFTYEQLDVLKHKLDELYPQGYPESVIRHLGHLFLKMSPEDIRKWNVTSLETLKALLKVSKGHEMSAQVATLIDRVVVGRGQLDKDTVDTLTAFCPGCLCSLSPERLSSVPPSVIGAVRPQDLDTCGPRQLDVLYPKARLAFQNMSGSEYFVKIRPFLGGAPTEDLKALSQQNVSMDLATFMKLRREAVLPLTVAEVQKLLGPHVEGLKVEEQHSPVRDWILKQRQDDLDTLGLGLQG
The assay is described as follows: Scatchard analysis on BJAB cells stably expressing gD-tagged cyno mesothelin.

Assay [3] concerns the target T3, gD epitope-tagged mouse mesothelin expressed on cells (construct #385) (mouse, UniProt Q61468 298-582).
T3 sequence: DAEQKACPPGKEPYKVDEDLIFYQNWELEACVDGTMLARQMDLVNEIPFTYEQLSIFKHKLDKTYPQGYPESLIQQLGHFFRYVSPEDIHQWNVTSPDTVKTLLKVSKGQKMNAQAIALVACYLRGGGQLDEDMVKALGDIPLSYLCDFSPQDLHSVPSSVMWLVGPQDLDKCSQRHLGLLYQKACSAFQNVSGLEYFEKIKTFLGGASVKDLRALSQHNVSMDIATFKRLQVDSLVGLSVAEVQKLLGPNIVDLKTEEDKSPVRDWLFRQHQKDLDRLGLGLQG
As to the kind of experiment: FACS on stably transfected 293 cells. As to the method: Monoclonal antibodies were tested to determine if they cross-react with mesothelin from species other than human. […] Shaded residues are identical between at least two species. Unshaded residues differ between at least two of the four species. […] Anti-gD staining verified that mouse mesothelin was indeed expressed.

Assay [4] has as its target T4, human mesothelin on cells (endogenous on tumour cell lines and tissue, or stably expressed on A431 or HT1080 … (human, UniProt Q13421 296-580)).
T4 construct: also called endogenous mesothelin; endogenous human mesothelin
As to the kind of experiment: Scatchard analysis (125I-labelled antibody) on OvCar3 cells, endogenous mesothelin. As to the method: (§1) The data was analyzed with non-linear regression curve fitting in the New Ligand program (Genentech, Inc., South San Francisco, Calif.) to estimate Kd values (Munson et al., Anal. Biochem., 107 220-239 (1980)).

Assay [5] concerns the target T2, gD epitope-tagged cynomolgus monkey …. The assay is described as follows: Scatchard analysis (125I-labelled antibody), row 'Cyno BJAB', stably transfected cells. As to the method:
as §1

The target of assay [6] is T5, endogenous rat mesothelin on the normal pleural cell line 4/4-RM4 (rat, UniProt Q9ERA7 298-582).
T5 sequence: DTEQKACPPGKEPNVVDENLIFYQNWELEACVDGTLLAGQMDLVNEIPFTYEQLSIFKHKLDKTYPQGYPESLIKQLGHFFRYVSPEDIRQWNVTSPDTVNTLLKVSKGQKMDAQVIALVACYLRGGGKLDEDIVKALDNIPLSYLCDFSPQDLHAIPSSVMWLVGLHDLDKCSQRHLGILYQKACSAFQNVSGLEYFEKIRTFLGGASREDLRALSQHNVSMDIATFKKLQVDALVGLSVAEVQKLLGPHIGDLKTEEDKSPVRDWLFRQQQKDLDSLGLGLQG
As to the kind of experiment: Scatchard on the normal rat pleural cell line 4/4-RM4. On the procedure:
as §1

For assay [7], the target named is T4, human mesothelin on cells (endogenous …). The assay is described as follows: Scatchard analysis (125I-labelled antibody) on AsPC1 cells, endogenous mesothelin. As to the method: as §1
Assay [8] shares this target. As to the kind of experiment: Scatchard; endogenous human mesothelin on cell lines. On the procedure: as §1
Assay [9] deals with T6, gD epitope-tagged human mesothelin expressed on cells (construct #387) (human, UniProt Q13421 296-580).
T6 construct: also called gD-human mesothelin; gD-tagged human mesothelin
T6 sequence (Q13421 other isoform, or with tags, fused parts or gaps): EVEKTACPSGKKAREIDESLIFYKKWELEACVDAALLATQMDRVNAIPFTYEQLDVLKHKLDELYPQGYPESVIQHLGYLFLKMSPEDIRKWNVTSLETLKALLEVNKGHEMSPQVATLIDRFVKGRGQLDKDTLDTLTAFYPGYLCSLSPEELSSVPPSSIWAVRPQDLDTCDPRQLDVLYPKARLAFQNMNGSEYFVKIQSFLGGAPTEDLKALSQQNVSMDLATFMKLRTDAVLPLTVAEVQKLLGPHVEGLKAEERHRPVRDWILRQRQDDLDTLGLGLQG
The assay is described as follows: Scatchard, 125I-labelled antibody on stably transfected BJAB cells. As to the method:
as §1

Assay [10] deals with T1, gD epitope-tagged rat mesothelin …. The assay is described as above. On the procedure:
as §1

Assay [11] concerns the target T4, human mesothelin on cells (endogenous …). The assay is described as follows: Scatchard analysis (125I-labelled antibody) on OvCar3x2.1 cells, endogenous mesothelin. On the procedure:
as §1

Assay [12] has the same target. As to the kind of experiment: Scatchard analysis (125I-labelled antibody) on HPAC cells, endogenous mesothelin. On the procedure: as §1
Assay [13] has as its target T6, gD epitope-tagged human mesothelin …. As to the kind of experiment: Scatchard, 125I-labelled antibody on stably transfected 293 cells. As to the method: as §1
In assay [14] the target is T1, gD epitope-tagged rat mesothelin …. The description is as above. On the procedure:
as §1

The target in assay [15] is T2, gD epitope-tagged cynomolgus monkey …. The assay is described as follows: Scatchard analysis (125I-labelled antibody), row 'Cyno 293', stably transfected cells. As to the method: as §1
For assay [16], the target named is T4, human mesothelin on cells (endogenous …). As to the kind of experiment: Scatchard analysis (125I-labelled antibody) on HPAF-II cells, endogenous mesothelin. On the procedure: as §1
For assay [17], the target named is T6, gD epitope-tagged human mesothelin …. The assay is described as follows: Scatchard, 125I-labelled antibody on stably transfected HT1080 cells. As to the method:
as §1

Assay [18] addresses T2, gD epitope-tagged cynomolgus monkey …. As to the kind of experiment: Scatchard analysis (125I-labelled antibody), row 'Cyno HT1080', stably transfected cells. As to the method:
as §1

Assay [19] has as its target T4, human mesothelin on cells (endogenous …). As to the kind of experiment: Scatchard analysis (125I-labelled antibody) on Capan2 cells, endogenous mesothelin. On the procedure:
as §1

The target of assay [20] is T7, E. coli derived recombinant human mesothelin (human, UniProt Q13421 296-580).
T7 construct: not shown: N-terminal unizyme His (HQ)-tag
T7 sequence (Q13421 other isoform, or with tags, fused parts or gaps): as above
As to the kind of experiment: Biacore-2000, IgG over immobilised E. coli derived human mesothelin, 1:1 fit. As to the method:
(§2) 7D9 variants were expressed as IgG by CHO transient transfection. IgG was purified with protein G affinity chromatography. The affinity of each 7D9 IgG variant for human mesothelin was determined by surface plasmon resonance using a BIACORE™-2000. BIACORE™ research grade CM5 chips were immobilized with approximately 110 RU of E. coli derived recombinant human mesothelin using the amine coupling kit from BIACORE™. […] Each sample was analyzed with 5-minute association and 3.5-minute dissociation. After each injection the chip was regenerated using 10 mM Glycine pH 1.7. Binding response was corrected by subtracting the RU from a flow cell with an irrelevant IgG immobilized at similar density. A 1:1 Languir model of simultaneous fitting of kₒₙ and koff was used for kinetics analysis.
(In general: SPR reads the build-up and loss of mass on a sensor chip optically.)

Assay [21] concerns the target T7, E. coli derived recombinant human …. The assay is described as follows: SPR (Biacore), IgG over immobilized E. coli derived human mesothelin. As to the method:
as §2
The human acceptor framework used for humanization of 7D9 is based on the human VL kappa I consensus (VLKI) and the acceptor VH framework VHATA, which differs from the human VH subgroup III consensus (VHIII) at 3 positions: R71A, N73T, and L78A (Carter et al., Proc. Natl. Acad. Sci. USA 89:4285 (1992)). The VL and VH domains of murine 7D9 were aligned with the human VLKI and VHIII domains; hypervariable regions were identified and grafted into the human acceptor framework to generate 7D9.v1 (FIGS. 4 and 5).

T4 sequence (Q13421 other isoform, or with tags, fused parts or gaps): as above

B1: 22A10 graft (antibody, V domains shown)
VH: EVQLVESGGGLVQPGGSLRLSCAASGFTFSDYFMSWVRQAPGKGLEWVATISNGGTYTYYPDSVKGRFTISRDNSKNTLYLQMNSLRAEDTAVYYCARFDGYYFDYWGQGTLVTVSS
VL: DIQMTQSPSSLSASVGDRVTITCRASQDISNYLNWYQQKPGKAPKLLIYYTSRLHSGVPSRFSGSGSGTDFTLTISSLQPEDFATYYCQQGNTLPYTFGQGTKVEIK
notes: also called hu22A10graft; 22A10 CDR graft
In the case of B1, the Kd in assay [1] stood at 1.9 nM; in assay [2], 1 nM.

B2: humanized monoclonal antibody 22A10.v83 (antibody, V domains shown)
VH: EVQLVESGGGLVQPGGSLRLSCAASGFTFSDYFMSWVRQAPGKGLEWVATISNGGTYTYYPDSVKGRFTISRDNSKNTLYLQMNSLRAEDTAVYYCARFDGYIFDYWGQGTLVTVSS
VL: DIQMTQSPSSLSASVGDRVTITCRASQDISNYLNWYQQKPGKAPKLLIYYTSRLHSGVPSRFSGSGSGTDFTLTISSLQPEDFATYYCQQGNTLPYTFGQGTKVEIKR
notes: also called h22A10.v83; hu22A10.v83
As to B2, the binding result in assay [3] is listed as “no binding (tested: 10 µg/ml)”. The dissociation constant (Kd) in assay [4] was 9.2 nM; in assay [5] it was 1.3 nM; in assay [6], 6.2 nM; in assay [7] it was 9.3 nM; in [8], 9 to 10 nM; in assay [9], 1.8 nM. The Kd in assay [10] is 2.7 nM; in [2], 1.3 nM; in assay [11] it was 9 nM; in assay [12], 9.4 nM; in assay [13], 2.7 nM; in assay [14], 7.3 nM. The Kd in assay [15] is 4.3 nM; in [16], 10.4 nM; in assay [17], 6.2 nM; in assay [18] it was 6.4 nM; in assay [19], 4.2 nM.

B3: chimeric 7D9 (antibody, V domains shown)
VH: QVQLQQSGAELAKPGASVKMSCKASGYTFTTYWMHWVKQRPGQGLEWIGYIRPSTGYTEYNQKFKDKATLTADKSSSTAYMQLSSLTSEDSTVYYCARSRWLLDYWGQGTSLTVS
VL: DIMMTQSPSSLAVSAGEKVTMSCKSSQSVLYSSNQKNYLAWFQQKPGQSPKLLIYWASTRESGVPDRFTGSGSGTDFTLTISSVQAEDLAVYFCHQYLSSYTFGGGTKVEIK
notes: also called ch7D9; mu7D9 (formatted as a chimeric 7D9)
Take B3: the Kd in assay [20] amounted to 1.84 nM.

B4: 7D9.v5 (antibody, V domains shown)
VH: EVQLVESGGGLVQPGGSLRLSCAASGYTFTTYWMHWVRQAPGKGLEWVGYIRPSTGYTEYNQKFKDRFTISADTSKNTAYLQMNSLRAEDTAVYYCARSRWLLDYWGQGTLVTVS
VL: DIQMTQSPSSLSASVGDRVTITCKSSQSVLYSSNQKNYLAWFQQKPGKAPKLLIYWASTRESGVPSRFSGSGSGTDFTLTISSLQPEDFATYYCHQYLSSYTFGQGTKVEIK
For B4, the dissociation constant (Kd) in assay [20] was determined as 3.49 nM.

B5: 7D9.v1 (antibody, V domains shown)
VH: EVQLVESGGGLVQPGGSLRLSCAASGYTFTTYWMHWVRQAPGKGLEWVGYIRPSTGYTEYNQKFKDRFTISADTSKNTAYLQMNSLRAEDTAVYYCARSRWLLDYWGQGTLVTVS
VL: DIQMTQSPSSLSASVGDRVTITCKSSQSVLYSSNQKNYLAWYQQKPGKAPKLLIYWASTRESGVPSRFSGSGSGTDFTLTISSLQPEDFATYYCHQYLSSYTFGQGTKVEIK
notes: also called direct-graft 7D9.v1
With B5, the “fold decrease in affinity relative to mu7D9 (chimeric 7D9)” value in assay [21] was around 2 fold. Further, the dissociation constant Kd in assay [20] was 3.98 nM.

B6: 7D9.v6 (antibody, V domains shown)
VH: EVQLVESGGGLVQPGGSLRLSCAASGYTFTTYWMHWVRQAPGKGLEWVGYIRPSTGYTEYNQKFKDRFTISADTSKNTAYLQMNSLRAEDTAVYYCARSRWLLDYWGQGTLVTVS
VL: DIQMTQSPSSLSASVGDRVTITCKSSQSVLYSSNQKNYLAWYQQKPGKAPKLLIYWASTRESGVPSRFSGSGSGTDFTLTISSLQPEDFATYFCHQYLSSYTFGQGTKVEIK
Regarding B6, the dissociation constant Kd in assay [20] is 4.08 nM.
